Laboratory results from publication PMC9256654, “Mechanistic basis for maintenance of CHG DNA methylation in plants” (Nature Communications, 2022).

Biological target: T1, Zea mays ZMET2 (residues 130-912), core fragment harboring the CD, BAH and MTase domains (Zea mays, UniProt Q9AXT8 130-912, in the crystallised complex C517 is covalently linked to the target 5-fluorocytosine (fC10) of the hmCAG DNA)
T1 construct: ZMET2, chromomethylase, CMT3 ortholog of Zea mays, residues 130-912; in the enzymatic assays and the EMSA the free protein was used; also called WT ZMET2; source: E. coli BL21 DE3 (RIL), purified (Ni-NTA, Heparin HP, Superdex 200); not shown: His6-SUMO, N-terminal, cleaved
T1 sequence (looked up): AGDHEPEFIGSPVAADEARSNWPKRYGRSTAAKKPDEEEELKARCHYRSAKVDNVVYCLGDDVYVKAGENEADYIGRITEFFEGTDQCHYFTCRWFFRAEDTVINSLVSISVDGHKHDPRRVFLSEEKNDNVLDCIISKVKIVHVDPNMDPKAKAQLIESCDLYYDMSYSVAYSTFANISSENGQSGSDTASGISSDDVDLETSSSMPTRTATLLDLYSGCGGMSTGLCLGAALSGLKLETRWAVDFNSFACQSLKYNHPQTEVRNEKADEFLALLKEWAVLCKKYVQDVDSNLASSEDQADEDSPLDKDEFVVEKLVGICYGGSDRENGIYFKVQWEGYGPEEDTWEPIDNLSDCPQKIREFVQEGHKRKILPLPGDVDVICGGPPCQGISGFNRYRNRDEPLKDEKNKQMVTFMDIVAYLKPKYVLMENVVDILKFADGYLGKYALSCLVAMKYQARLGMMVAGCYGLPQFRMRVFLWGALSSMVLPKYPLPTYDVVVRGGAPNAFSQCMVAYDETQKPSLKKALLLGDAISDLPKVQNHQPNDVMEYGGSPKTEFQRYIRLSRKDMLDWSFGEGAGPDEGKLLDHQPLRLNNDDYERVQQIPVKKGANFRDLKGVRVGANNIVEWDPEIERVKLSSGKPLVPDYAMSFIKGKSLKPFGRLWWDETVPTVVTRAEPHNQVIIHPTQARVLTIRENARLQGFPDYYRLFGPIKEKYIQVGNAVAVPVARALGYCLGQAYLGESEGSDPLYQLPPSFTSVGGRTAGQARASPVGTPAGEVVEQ
Assay: crystal structure; covalent ZMET2-hmCAG DNA complex with the H3_(1–32)Kc9me2 peptide and SAH; sitting drop at 4 °C, 0.1 M sodium citrate pH 5.5, 15% w/v polyethylene glycol 6000
Conditions: both partners purified

stoichiometry N: 2 peptides per ZMET2 complex
B1: histone H3 peptide residues 1-32 harboring the Kc9me2 modification (methyl-lysine analog of H3K9me2) (peptide)
peptide: not shown
modifications: Kc9me2: cysteine 9 (K9C) alkylated with (2-chloroethyl)-dimethylammonium chloride to the methyl-lysine analog of dimethyl-lysine
notes: Histone H3 residues 1-32; The removal of the His6-SUMO tag is told only through 'initial purification as described above'; also called H3_(1–32)Kc9me2; H3Kc9me2; source: E. coli BL21 DE3 (RIL), purified (HiTrap SP HP), alkylated, purified again (HiTrap SP HP); not shown: His6-SUMO, N-terminal, cleaved
